Data taken from article PMC3826667, “S100A9 protein is a novel ligand for the CD85j receptor and its interaction is implicated in the control of HIV-1 replication by NK cells” (Retrovirology, 2013).

B1: recombinant GST-tagged human S100A8 monomer protein (natural protein, UniProt P05109 1-93, looked up)
chain: MLTELEKALNSIIDVYHKYSLIKGNFHAVYRDDLKKLLETECPQYIRKKGADVWFKELDINTDGAVNFQEFLILVIKMGVAAHKKSHEESHKE
notes: S100A8, human, recombinant, GST-tagged; source: bought: Tebu-bio
B2: full-length recombinant GST-tagged human S100A9 monomer (natural protein, UniProt P06702 1-114, looked up)
chain: MTCKMSQLERNIETIINTFHQYSVKLGHPDTLNQGEFKELVRKDLQNFLKKENKNEKVIEHIMEDLDTNADKQLSFEEFIMLMARLTWASHEKMHEGDEGPGHHHKPGLGEGTP
notes: S100A9, human, full-length recombinant, GST-tagged; source: bought: Tebu-bio

Molecular target: T1, recombinant CD85j-Fc fusion protein (human, UniProt Q8NHL6 24-461)
T1 construct: CD85j (LILRB1, ILT2, LIR-1), human; also called CD85j fusion protein; LILRB1; source: bought: R&D System
Test: ELISA; anti-GST mAb-coated wells, 4 ug/mL GST-tagged S100A8 or S100A9 captured, increasing amounts of CD85j-Fc, 2 h at 37°C; detected with HRP anti-human-Fc
Details: both partners purified

T1 sequence (Q8NHL6 24-461): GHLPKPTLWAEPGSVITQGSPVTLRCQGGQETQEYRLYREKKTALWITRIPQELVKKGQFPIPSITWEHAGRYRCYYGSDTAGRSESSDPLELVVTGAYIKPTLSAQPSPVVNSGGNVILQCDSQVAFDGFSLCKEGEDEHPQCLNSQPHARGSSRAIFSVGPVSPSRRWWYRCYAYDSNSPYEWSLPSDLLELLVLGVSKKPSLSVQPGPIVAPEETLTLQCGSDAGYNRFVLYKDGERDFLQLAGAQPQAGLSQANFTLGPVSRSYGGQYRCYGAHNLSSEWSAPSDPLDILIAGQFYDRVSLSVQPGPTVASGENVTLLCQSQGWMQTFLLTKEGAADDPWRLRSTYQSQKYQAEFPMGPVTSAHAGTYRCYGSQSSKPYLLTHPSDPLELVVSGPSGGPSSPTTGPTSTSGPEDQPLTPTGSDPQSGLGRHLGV

Row | Binder | binding result
1 | B1 | binds
2 | B2 | binds
